PMC1236978

Biological target: T1, HutP (V51I) (Bacillus subtilis, UniProt P10943 1-148, V51I)
T1 sequence: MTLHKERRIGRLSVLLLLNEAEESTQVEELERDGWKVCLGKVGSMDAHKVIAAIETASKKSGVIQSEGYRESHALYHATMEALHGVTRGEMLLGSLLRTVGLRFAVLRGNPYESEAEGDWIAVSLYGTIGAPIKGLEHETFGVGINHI
Test: EMSA

B1: 21mer hut RNA (minimal RNA element) (ssRNA)
RNA: CAUAGAUCUUAGACGAUAGGG
- binding result: binds
